Source: US20200113997A1

Columns and labels:
[1] = target: Man9-V3 glycopeptide (HIV-1 (clade B JRFL mini-V3)); assay: BLI, biotinylated peptide on streptavidin sensor, bivalent avidity model
Man9-V3 glycopeptide = assay: BLI

Binder | Kd [1] [µM] | Kd (Man9-V3 glycopeptide) [µM]
DH270.6 (antibody, V domains shown) VH: QVQLVQSGAQMKNPGASVKVSCAPSGYTFTDFYIHWLRQAPGQGLQWMGWMNPQTGRTNTARNFQGRVIMTRDTSIGTAYMELRSLTSDDTAIYYCTTGGWISLYYDSSYYPNFDHWGQGTLLTVSS VL: TSLLTQPASVSGSPGQSITISCTGTKYDVGSHDLVSWYQQYPGKVPKYMIYEVNKRPSGVSNRFSGSKSGNTASLTISGLRAEDEADYYCCSFGGSATVVCGGGTKVTVL | 0.188 | 
DH270.IA3 (protein) chain 1: QVQLVQSGAEVKKPGASVKVSCKASGYTFTDYYIHWVRQAPGQGLEWMAWINPTTGRTNYARKFQGRVTMTRDTSISTAYMELRRLRSDDTAVYYCARGGWIGLYVDYSGYPNFDSWGQGTLVTVSS chain 2: QSALTQPASVSGSPGQSITISCTGTSYDVGSYNLVSWYQQHPGKAPKLMIYEVSKWPSGVSNRFSGSKSGNTASLTISGLQAEDEADYYCCSYAGSSTVIFGGGTKLTVL |  | > 10
DH270.IA1 (protein) chain 1: QVQLVQSGAEVKKPGASVKVSCKASGYTFTDYYIHWVRQAPGQGLEWMGWINPNTGRTNYAQKFQGRVIMTRDTSISTAYMELSRLRSDDTAVYYCARGGWIGLYYDSSGYPNFDYWGQGTLVTVSS chain 2: QSALTQPASVSGSPGQSITISCTGTSYDVGSYNLVSWYQQHPGKAPKLMIYEVSKRPSGVSNRFSGSKSGNTASLTISGLQAEDEADYYCCSYAGSSTVIFGGGTKLTVL |  | 3.29
DH270.IA2 (protein) chain 1: QVQLVQSGAEMKKPGASVKVSCKASGYTFTDYYIHWVRQAPGQGLEWMGWINPNTGRTNYAQKFQGRVTMTRDTSISTAYMELSRLTSDDTAVYYCATGGWIGLYYDSSGYPNFDYWGQGTLVTVSS chain 2: QSALTQPASVSGSPGQSITISCTGTSYDVGSYNLVSWYQQHPGKAPKYMIYEVNKRPSGVSNRFSGSKSGNTASLTISGLQAEDEADYYCCSYAGSSTVIFGGGTKLTVL |  | > 10
